Assay results as given in patent US12679878B2, “CRF2 receptor agonists and their use in therapy” (SANOFI, priority 2020, dated 2026).
Starred links: 1 amine or outer side, 2 acyl side, 3 side chain; linkers in the order of their positions; H or OH if unused. Non-standard residues stand in square brackets, D forms with d. Groups on a side chain read outwards from the residue. No end group written: not given here. *: point of attachment. C18 diacid = O=C(O)CCCCCCCCCCCCCCCCC(=O)*; γGlu = O=C(O)[C@H](CCC(=O)[*:2])N[*:1]; AEEA = NCCOCCOCC(=O)O; Aib = CC(C)(N)C(=O)O

T1: CRF1R receptor (anti-target) (UniProt P34998 24-415, limits assumed)
T1 sequence (looked up): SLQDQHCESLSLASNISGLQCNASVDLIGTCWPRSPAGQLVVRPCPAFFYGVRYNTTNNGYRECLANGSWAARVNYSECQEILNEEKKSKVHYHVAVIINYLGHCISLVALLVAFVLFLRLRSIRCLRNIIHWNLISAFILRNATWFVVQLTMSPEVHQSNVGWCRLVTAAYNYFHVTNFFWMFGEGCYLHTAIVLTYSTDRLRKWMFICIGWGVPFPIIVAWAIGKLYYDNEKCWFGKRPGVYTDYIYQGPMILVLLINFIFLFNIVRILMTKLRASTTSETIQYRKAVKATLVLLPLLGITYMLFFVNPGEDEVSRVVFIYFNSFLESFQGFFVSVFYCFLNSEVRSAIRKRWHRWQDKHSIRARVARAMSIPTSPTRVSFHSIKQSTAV

B1: peptide of SEQ ID NO: 110 (peptide)
peptide: IVLSLDVPIKLK([AEEA-AEEA-γGlu-C18 diacid])QILLKQERQK[Aib]QRQQAETNKQILAQV-NH2
modifications: N-terminus assumed
SMILES: CC[C@H](C)[C@H](N)C(=O)N[C@H](C(=O)N[C@@H](CC(C)C)C(=O)N[C@@H](CO)C(=O)N[C@@H](CC(C)C)C(=O)N[C@@H](CC(=O)O)C(=O)N[C@H](C(=O)N1CCC[C@H]1C(=O)N[C@H](C(=O)N[C@@H](CCCCN)C(=O)N[C@@H](CC(C)C)C(=O)N[C@@H](CCCCNC(=O)COCCOCCNC(=O)COCCOCCNC(=O)CC[C@H](NC(=O)CCCCCCCCCCCCCCCCC(=O)O)C(=O)O)C(=O)N[C@@H](CCC(N)=O)C(=O)N[C@H](C(=O)N[C@@H](CC(C)C)C(=O)N[C@@H](CC(C)C)C(=O)N[C@@H](CCCCN)C(=O)N[C@@H](CCC(N)=O)C(=O)N[C@@H](CCC(=O)O)C(=O)N[C@@H](CCCNC(=N)N)C(=O)N[C@@H](CCC(N)=O)C(=O)N[C@@H](CCCCN)C(=O)NC(C)(C)C(=O)N[C@@H](CCC(N)=O)C(=O)N[C@@H](CCCNC(=N)N)C(=O)N[C@@H](CCC(N)=O)C(=O)N[C@@H](CCC(N)=O)C(=O)N[C@@H](C)C(=O)N[C@@H](CCC(=O)O)C(=O)N[C@H](C(=O)N[C@@H](CC(N)=O)C(=O)N[C@@H](CCCCN)C(=O)N[C@@H](CCC(N)=O)C(=O)N[C@H](C(=O)N[C@@H](CC(C)C)C(=O)N[C@@H](C)C(=O)N[C@@H](CCC(N)=O)C(=O)N[C@H](C(N)=O)C(C)C)[C@@H](C)CC)[C@@H](C)O)[C@@H](C)CC)[C@@H](C)CC)C(C)C)C(C)C
B2: peptide of SEQ ID NO: 108 (peptide)
peptide: IVLSLDVPIKLK([AEEA-AEEA-γGlu-C18 diacid])QILLKQERQK[Aib]QRQKAETNKQILAQV-NH2
modifications: N-terminus assumed
SMILES: CC[C@H](C)[C@H](N)C(=O)N[C@H](C(=O)N[C@@H](CC(C)C)C(=O)N[C@@H](CO)C(=O)N[C@@H](CC(C)C)C(=O)N[C@@H](CC(=O)O)C(=O)N[C@H](C(=O)N1CCC[C@H]1C(=O)N[C@H](C(=O)N[C@@H](CCCCN)C(=O)N[C@@H](CC(C)C)C(=O)N[C@@H](CCCCNC(=O)COCCOCCNC(=O)COCCOCCNC(=O)CC[C@H](NC(=O)CCCCCCCCCCCCCCCCC(=O)O)C(=O)O)C(=O)N[C@@H](CCC(N)=O)C(=O)N[C@H](C(=O)N[C@@H](CC(C)C)C(=O)N[C@@H](CC(C)C)C(=O)N[C@@H](CCCCN)C(=O)N[C@@H](CCC(N)=O)C(=O)N[C@@H](CCC(=O)O)C(=O)N[C@@H](CCCNC(=N)N)C(=O)N[C@@H](CCC(N)=O)C(=O)N[C@@H](CCCCN)C(=O)NC(C)(C)C(=O)N[C@@H](CCC(N)=O)C(=O)N[C@@H](CCCNC(=N)N)C(=O)N[C@@H](CCC(N)=O)C(=O)N[C@@H](CCCCN)C(=O)N[C@@H](C)C(=O)N[C@@H](CCC(=O)O)C(=O)N[C@H](C(=O)N[C@@H](CC(N)=O)C(=O)N[C@@H](CCCCN)C(=O)N[C@@H](CCC(N)=O)C(=O)N[C@H](C(=O)N[C@@H](CC(C)C)C(=O)N[C@@H](C)C(=O)N[C@@H](CCC(N)=O)C(=O)N[C@H](C(N)=O)C(C)C)[C@@H](C)CC)[C@@H](C)O)[C@@H](C)CC)[C@@H](C)CC)C(C)C)C(C)C
B3: peptide of SEQ ID NO: 109 (peptide)
peptide: IVLSLDVPIKLK([AEEA-AEEA-γGlu-C18 diacid])QILLKQERQK[Aib]QREKAETNKQILAQV-NH2
modifications: N-terminus assumed
SMILES: CC[C@H](C)[C@H](N)C(=O)N[C@H](C(=O)N[C@@H](CC(C)C)C(=O)N[C@@H](CO)C(=O)N[C@@H](CC(C)C)C(=O)N[C@@H](CC(=O)O)C(=O)N[C@H](C(=O)N1CCC[C@H]1C(=O)N[C@H](C(=O)N[C@@H](CCCCN)C(=O)N[C@@H](CC(C)C)C(=O)N[C@@H](CCCCNC(=O)COCCOCCNC(=O)COCCOCCNC(=O)CC[C@H](NC(=O)CCCCCCCCCCCCCCCCC(=O)O)C(=O)O)C(=O)N[C@@H](CCC(N)=O)C(=O)N[C@H](C(=O)N[C@@H](CC(C)C)C(=O)N[C@@H](CC(C)C)C(=O)N[C@@H](CCCCN)C(=O)N[C@@H](CCC(N)=O)C(=O)N[C@@H](CCC(=O)O)C(=O)N[C@@H](CCCNC(=N)N)C(=O)N[C@@H](CCC(N)=O)C(=O)N[C@@H](CCCCN)C(=O)NC(C)(C)C(=O)N[C@@H](CCC(N)=O)C(=O)N[C@@H](CCCNC(=N)N)C(=O)N[C@@H](CCC(=O)O)C(=O)N[C@@H](CCCCN)C(=O)N[C@@H](C)C(=O)N[C@@H](CCC(=O)O)C(=O)N[C@H](C(=O)N[C@@H](CC(N)=O)C(=O)N[C@@H](CCCCN)C(=O)N[C@@H](CCC(N)=O)C(=O)N[C@H](C(=O)N[C@@H](CC(C)C)C(=O)N[C@@H](C)C(=O)N[C@@H](CCC(N)=O)C(=O)N[C@H](C(N)=O)C(C)C)[C@@H](C)CC)[C@@H](C)O)[C@@H](C)CC)[C@@H](C)CC)C(C)C)C(C)C
B4: peptide of SEQ ID NO: 106 (peptide)
peptide: IVLSLDVPIKLK([AEEA-AEEA-γGlu-C18 diacid])QILLEQERQK[Aib]QREQAETNKQILERV-NH2
modifications: N-terminus assumed
SMILES: CC[C@H](C)[C@H](N)C(=O)N[C@H](C(=O)N[C@@H](CC(C)C)C(=O)N[C@@H](CO)C(=O)N[C@@H](CC(C)C)C(=O)N[C@@H](CC(=O)O)C(=O)N[C@H](C(=O)N1CCC[C@H]1C(=O)N[C@H](C(=O)N[C@@H](CCCCN)C(=O)N[C@@H](CC(C)C)C(=O)N[C@@H](CCCCNC(=O)COCCOCCNC(=O)COCCOCCNC(=O)CC[C@H](NC(=O)CCCCCCCCCCCCCCCCC(=O)O)C(=O)O)C(=O)N[C@@H](CCC(N)=O)C(=O)N[C@H](C(=O)N[C@@H](CC(C)C)C(=O)N[C@@H](CC(C)C)C(=O)N[C@@H](CCC(=O)O)C(=O)N[C@@H](CCC(N)=O)C(=O)N[C@@H](CCC(=O)O)C(=O)N[C@@H](CCCNC(=N)N)C(=O)N[C@@H](CCC(N)=O)C(=O)N[C@@H](CCCCN)C(=O)NC(C)(C)C(=O)N[C@@H](CCC(N)=O)C(=O)N[C@@H](CCCNC(=N)N)C(=O)N[C@@H](CCC(=O)O)C(=O)N[C@@H](CCC(N)=O)C(=O)N[C@@H](C)C(=O)N[C@@H](CCC(=O)O)C(=O)N[C@H](C(=O)N[C@@H](CC(N)=O)C(=O)N[C@@H](CCCCN)C(=O)N[C@@H](CCC(N)=O)C(=O)N[C@H](C(=O)N[C@@H](CC(C)C)C(=O)N[C@@H](CCC(=O)O)C(=O)N[C@@H](CCCNC(=N)N)C(=O)N[C@H](C(N)=O)C(C)C)[C@@H](C)CC)[C@@H](C)O)[C@@H](C)CC)[C@@H](C)CC)C(C)C)C(C)C

Molecular target: T1, CRF1R receptor (anti-target)
Assay: cell-based or functional assay

| Binder | EC50 [nM] 0% HSA (cAMP, HTRF) [nM] | Emax (%) (100% = Sauvagine at 100 nM) |
| --- | --- | --- |
| B1 | > 100 | 5.4 |
| B2 | > 100 | -2 |
| B3 | > 100 | 1.1 |
| B4 | > 100 | 5.1 |
